According to the DeepSol protein solubility set:

experiment: soluble on expression in E. coli; label from the status in PepcDB or PDB records

Row | Sequence | soluble on expression in E. coli
1 | MNYSHPISLKTLVQEDDIGVNAPIIHQSVIARLTAGLYPLYQSKKIPFEPLPETMLTEGYSSPVPDVLLYDHQTEEAKVIIEVCQNSGLKHDTSKIVKLIEDNAYGILEGFVFNYKTQQWLRYRLGDGGVATNSSFSEVLQVDLNTFV | soluble
2 | MSIKEQTLMTPYLQFDRNQWAALRDSVPMTLSEDEIARLKGINEDLSLEEVAEIYLPLSRLLNFYISSNLRRQAVLEQFLGTNGQRIPYIISIAGSVAVGKSTTARVLQALLSRWPEHRRVELITTDGFLHPNQVLKERGLMKKKGFPESYDMHRLVKFVSDLKSGVPNVTAPVYSHLIYDVIPDGDKTVVQPDILILEGLNVLQSGMDYPHDPHHVFVSDFVDFSIYVDAPEDLLQTWYINRFLKFREGAFTDPDSYFHNYAKLTKEEAIKTAMTLWKEINWLNLKQNILPTRERASLILTKSANHAVEEVRLRK | soluble
3 | MTEDALNRIADALERMAPAPLRAPDFAVAPAFVWHVAPERLEPVRDVNRVDLDLLVGINRARDTLLDNTRRFAAGHGANNALLWGARGMGKSSLVKAVHGALQPEFPNLKLVELQREDLPSVARLLNHLRAAPERFILFCDDLSFSHDDQHYKSLKAVLDGGIEGRPENVVFYATSNRRHLMPRDMIENERSSAINPSEAVEEKVSLSDRFGLWLGFHPCDQDEYLAMIDGYCAAYGVSVAPDTLRAEAIEWQATRGARSGRVAWQFFTDLAGRQGIALRLEHHHHHH | soluble
4 | MNVVFAVKQYISKMIEDSGPGMKVLLMDKETTGIVSMVYTQSEILQKEVYLFERIDSQNREIMKHLKAICFLRPTKENVDYIIQELRRPKYTIYFIYFSNVISKSDVKSLAEADEQEVVAEVQEFYGDYIAVNPHLFSLNILGCCQGRNWDPAQLSRTTQGLTALLLSLKKCPMIRYQLSSEAAKRLAECVKQVITKEYELFEFRRTEVPPLLLILDRCDDAITPLLNQWTYQAMVHELLGINNNRIDLSRVPGISKDLREVVLSAENDEFYANNMYLNFAEIGSNIKNLMEDFQKKKPKEQQKLESIADMKAFVENYPQFKKMSGTVSKHVTVVGELSRLVSERNLLEVSEVEQELACQNDHSSALQNIKRLLQNPKVTEFDAARLVMLYALHYERHSSNSLPGLMMDLRNKGVSEKYRKLVSAVVEYGGKRVRGSDLFSPKDAVAITKQFLKGLKGVENVYTQHQPFLHETLDHLIKGRLKENLYPYLGPSTLRDRPQDIIVFVIGGATYEEALTVYNLNRTTPGVRIVLGGTTVHNTKSFLEEVLASGLHSRSKESSQVTSRSASRR | not soluble
5 | MEEWKTSFREIYGRSPTAGDISVAPNHIKAILQSEKKENDEKIEEKQAKRGVKRKNFEMKMMEGEQFSPIKKRVNLNQLGSENDKNPIPLRSSPRKKMIAIEVLPEKSMVSPKKKPVGSVPFEFDDFSPVKSYSASTSKSAVKSTLTPIKSPTKRAYQRPLRDLKMLLLPTPEKGQEVEGPVEEFDDETNEDVAKARSYNPAARKLGGSSKSDQNFQKINLRKKQFVRGKVTAEQKRKLKRKQMFKKKY | soluble
6 | MVYYEIIKDIVFTYNLQFTHLIHNDRISEVNLGGVTMRSIITQICNGVLHGQSYQSGSNDLDKGNSEIFASSLFVHLNEQGKEIIKHKDSDDKIVIGYTKDGMAFQIVVDGFYGCERQAVFSFIDNYVLPLIDNFSLDLTRYPDSKKVTESLIHTIYSLRSKHAPLAEFTMSLCVTYQKDEQLFCAGFGIGDTGIAIKRNEGTIEQLVCHTEVDGFKDAFDNYSSANIDLVIERNSVFNTKVMPGDELVGYTYVPPMLEMTEKEFEVETVDGKKINKRIVRHLNLDPGNFDDKDPLFSQLLQVVKSKQKQLVEQAKETGQIQRFGDDFTVGRLVIPDQLLINQLRIHALSIGVSDGLLSYIKNENENKGFLGIYGFFTGADKNIEKATLYKNLIAKYQNNHFISLIILSALVSDSKTPLMTQYLVGYLDFPSKALLANKITELLLKELENPDMREILGSRLATDVIEELETKIIRYIHNPAGSDIHSTLNLWTADKIKAATNSSLTI | not soluble
7 | MGSDKIHHHHHHMKILIVGGSGGIGSAMVKDALARFQDAEVHATFCTDSTHTGCSHFSGVKWHRLDVTDEAGIKALSESFESLDWLINCVGMLHSGSKGPEKSLSQFDGEFFLHNMTLNTLPTLLLAKHFSARLKSSVSPRLAVLSARVGSISDNRLGGWYSYRASKAALNMLIKTLAVEWQRSLKGGVVLALHPGTTKTRLSEPFQANVPGDKLFLPERVAADLMDIIARAEVCDSGSFLAYDGATIPW | not soluble
8 | MNALEPLFARLARSTFRSRFRLGIKERQYCWDKGAEVIDKHAADFIAQRLAPAHPANDGKQTPMRGHPVFIAQHATATCCRGCLAKWHQIPQGEPLSEAQQQYIVSVIHYWLVIQMNQR | not soluble
9 | MTASDYEWQPDILGKDFQQLVIPLGADPISEGGEDDIFATLVRYAPADQPTPTSRPAVLFVHGMTDYFFQRHVAQWFHQHGFSVYALDLRKCGRSHRNNQSWHYISDISRYFEELDRAKSIIEELHPTIFPIGHSTGGLILAHWLDGLRQCETLHPTIPGAILNSPWLDMMTPATVTRALRPILTRAARRFPHASFGRSKEGTYGRSLHASRSGEWDYDISFKPLTGHLRKLGWLHAIDTAQSLVHNDAVDCGIPLLMLCSDHSSLRGKFSPRAQVTDTVLDVEQMKRWAPHLSEYVSVCTIRGAVHDVYLSQKPARLQALETSVRWMNRILSEHTI | not soluble
10 | MDREALQHRVLITVSRSSLFRVVEGILEEGKVSSMASSITEYLLNNRYSRERALEHISVYLESELEKSGIDLDDGVDGISLAILFVYEELLENKSEFFSKIQEKSGHALHPPSSDSEE | not soluble
11 | ATPAAQASDDRYEVTQQRNPDAACLDCHKPDTEGMHGKHASVINPNNKLPVTCTNCHGQPSPQHREGVKDVMRFNEPMYKVGEQNSVCMSCHLPEQLQKAFWPHDVHVTKVACASCHSLHPQQDTMQTLSDKGRIKICVDCHSDQRTNPNFNPASVPLLKEQP | soluble
12 | QITLKESGPGIVQPSQPFRLTCTFSGFSLSTSGIGVTWIRQPSGKGLEWLATIWWDDDNRYNPSLKSRLTVSKDTSNNQAFLNMMTVETADTAIYYCAQSAITSVTDSAMDHWGQGTSVTVSSAKTTPPSVYPLAPGSAAQTNSMVTLGCLVKGYFPEPVTVTWNSGSLSSGVHTFPAVLQSDLYTLSSSVTVPSSTWPSETVTCNVAHPASSTKVDKKIVPADC | soluble
13 | ASMGKSAVIFVERATPATLTELKDALSNSILSVRDPWSIDFRTYRCSIKNLPADVSKLMYSITFHHHGRQTVLIKDNSAMVTTAAAADIPPALVFNGSSTGVPESIDTILSSKLSNIWMQRQLIKGDAGETLILDGLTVRLVNLFSSTGFKGLLIELQADEAGEFETKIAGIEGHLAEIRAKEYKTSSDSLGPDTSNEICDLAYQYVRALEL | soluble
14 | AHHHHHHGSAKRVHLFDWHKEHAKKIEEFAGWEMPIWYSSIKEEHLAVRNAVGVFDVSHMGEILFKGKDALKFLQYTTTNDISKPPAISGTYTLVLNERGAIKDETLVFNMGNNEYLMICDADAFEKLYAWFTYLKKTIEQFTKLDLEIELKTYDIAMFAVQGPKARDLAMDLFGIDINEMWWFQGRWVELDGIKMLLSRSGYTGENGFEVYIEDLNPYHPDEEKRGKPEKALHVWERILEEGQKYGIKPAGLGARDTLRLEAGYTLYGNDTKELQLLSTDIDEVTPLQANLEFAIYWDKDFIGKDALLKQKEKGLGRKLVHFKMLEKSVPREGYKVYANGELIGEVTSGTLSPLLNIGIGIAFVKEEYAKPGVEIEIDIRGTRKKAITVTPPFYDPKKYGLFREE | soluble
15 | MGSDKIHHHHHHMDLQYLDNFLALAHYRSFSAAADACYISQSSFSKRIMRLENNLGVTLFERSTRQVSLTEYGQIYLKYAQQIKTLSRQATDEINRRHAEDEGIVIGGIPSISEYGILDLISGFIKTTHIHCQVKSAPSEDLEPMLLNQTLDFAFIKEVHHTNLFYQLPYAEDHLVAVLPANHPLANLSEIKLQQLANEDFIFQPVNSRPYELCMMICKQNGFTPNVIYADRIIENILNFVKKGLGVSLLMEKLVPKDSELICLPIHPAVVADINLCYLKKEPLSQYGYAFLNYFSHQNNAR | not soluble
16 | PATDWLSAETFESDLDETRVPEVPSSLHVRPLVTSIVVSWTPPENQNIVVRGYAIGYGIGSPHAQTIKVDYKQRYYTIENLDPSSHYVITLKAFNNVGEGIPLYESAVTRPHT | soluble
17 | MSLARNVPEFGMESYRIEVGRMHGVKPANIVGAIANEAGLESRYIGRIDIRDDHSVLDLPAEMPHEILQHLKKVWVSGQQLQMRRIDTTETEGHHHHHH | soluble
18 | MQYVKIKDAIVEQIDAGMLMPRQKLPAERKLAESFDTTRVTLREALSLLEAEGKIYREDRRGWFISPAPLRYDPTQTLNFTNMALAQNRQPKTELVSAKAVIANKQATRLLKLKPFSDVYRVDRVRYLDNRPVVYVTNYIRPELFPNLLDFDLSQSLTDLYREHYATQYQTIHYRISTSSLLGEMAQALRATSGTPAMVVERVNYNQKGELIDCDIEYWRHDAITIESIAELKR | not soluble
19 | MGSDKIHHHHHHMSDRLPPLTALRAFDAAARHMSFAKAADELSVTPAALSFQIKSLEEHLGAPLFRRLNRAVELTEAGAALAPGVDEGFQALSAAWRQARRVLDTTSLTVTAGPALTAKWLAPRLYEFARSHPDIDLRLSAGLKMVDLRRDHVDVAIRFGYSVDDYLVAQAARPEWLTPVMTPELCAKYPTPQSLRDAPLIYDDSIGFLSPSCDWPTWFRAMGLEFTPGHGTHFSHADHAIDAACAGLGVALGRRPMIIKDVQEGRLVAPFKVAIETDAKFHFLCLPSSQDRPQIRAFREWFFSEIEKTAHMWDDFTIIPVKDL | not soluble
20 | MGHHHHHHSHMDVVKEIMAAIKQYETIIIHRHQRPDPDAIGSQVGLAELLRASFPEKNIYQVGGPVEGLEFLAEMDVITDDVYRGALVIVTDTANAPRISDARFSLGDQLIKIDHHPNDEPYGDLVWVNTNASSCSEIIVDFWQQHLAELTMTDNAARLLYAGIVGDTGRFLYPSTSAHTLAVAAQLRTFNFNAADLNRELDQMPLKVAKLAGYIYQNLEIDANGAARVVLPQSILNSYDIVDSETAAIVSMPGKIEDVLSWAIFVEQPEGYYRVRLRSKGPIINTIAKKHHGGGHPLASGANARDAAEIEVIYQEIQAACQEWAQK | soluble
21 | MAGDPMYSLFQEGRKMKNTAFLITKNHYPKDYRLKKSPDSDSAMGVAKRILAEVMIFRRVPETISLCGTGCQKCASPHLPKIISAVNKNEPVTFILPAFPGKSPNPEKVLGHLPDHAERLSLNFLGTLCQRIKNFYTPGIKIILCSDGRVFSDVVGMNESDVTAYQLELDRLIKEMSLADLSTFNLDYFYKDLHFVQMREELMKSYGQSLDFLKQKIRNGAKPSASPDEQEANRMYSGITRFLFEDAMHAGQTKSRTAIQKESRFKAYEVIRRSNAWSALIAERFPKAVRLSIHPQTCGSKKLGIRLIGNESWMTPWHGVAVESNKGYVLLRRSEAEALGAKLICSSDGRHSHYQLMAEVSYELAAALEHHHHHH | soluble
